In US20160200799A1:

Key:
Experiment in all cases: cell-based or functional assay
[1] = target: Influenza virus A/Suita/1/2009pdm (H1N1 2009 pandemic) (Influenza A virus A/Suita/1/2009pdm (H1N1pdm))
[2] = target: Influenza virus A/California/7/2009pdm (H1N1pdm) (Influenza A virus A/California/7/2009pdm (H1N1pdm))
[3] = target: Influenza virus A/Panama/2007/1999 (H3N2) (Influenza A virus A/Panama/2007/1999 (H3N2))
[4] = target: Influenza virus A/Indonesia/5/2005/PR8-IBCDC-RG2 (H5N1) (Influenza A virus A/Indonesia/5/2005/PR8-IBCDC-RG2 (H5N1))
[5] = target: Influenza virus A/Brisbane/59/2007 (H1N1) (Influenza A virus A/Brisbane/59/2007 (H1N1))

| Binder | Neutralizing activity (%) at 100 µg/ml [1] | Neutralizing activity (%) at 250 µg/ml [1] | HI activity [2] | Neutralizing activity (%) at 100 µg/ml [3] | Neutralizing activity (%) at 250 µg/ml [3] | Neutralizing activity (%) at 100 µg/ml [4] | Neutralizing activity (%) at 250 µg/ml [4] | HI activity [5] | Neutralizing activity (%) at 100 µg/ml [5] | Neutralizing activity (%) at 250 µg/ml [5] |
| --- | --- | --- | --- | --- | --- | --- | --- | --- | --- | --- |
| Group 35 representative clone F082-117, Fab-PP-type antibody (Fab, V domains shown) VH: QVQLVQSGSEVKKPGSSVKVSCKSSGGILRRSAISWVRQAPGQGLEWMGGILAIFGTTKYAQKFQGRITITADESTNTVHMELSSLRPDDTAVYYCAGGPHYYVSYFDSWGQGTLVTVSS VL: DIQMTQSPATLSLSPGERATLSCRASQSVRSYLAWYQQKPGQAPRLLIYDASNRATGIPARFSGSGSGTEFTLTISRLEPEDFAVYYCQQRSNWLFTFGPGTKVDFK | 100% | 100% | > 160 µg/mL | 3.4% | -4.8% | 94.1% | 95.9% | > 160 µg/mL | 100% | 100% |
| Group 52 representative clone F083-328, Fab-PP-type antibody (Fab, V domains shown) VH: QVQLVQSGAEVKKPGSSVKLSCKASGGTLRSYALSWVRQAPGEGLEWMGGISAIFNTATYAQNVQGRVTITADESTNTFYLEVSSLRSDDTAVYYCATSGTYYVSFFDYWGQGTLVTVSS VL: DIVLTQSPSTLSASVGDRVTLTCRASQSIGSLMAWYQQQPGKPPKLLIYRASNLETGVPSRFTGSGSGTEFALTISSLQPDDVGTYYCQHFKTFSRTFGQGTKVEIK | 100% | 100% | > 160 µg/mL | 9.6% | 5.5% | 86.9% | 93.2% | > 160 µg/mL | 100% | 100% |
| Group 39 representative clone F082-237, Fab-PP-type antibody (Fab, V domains shown) VH: QVQLVQSGAEVKKPGSSVKVSCKASGGIFNKYGISWVRQAPGQGLEWMGGILAIFGTTNYAQKFQGRVTISADESSTTVYMELSSLTSEDTAVYYCARGNTYYSSYFDQWGQGTLVTVSS VL: QSVLTQPPSVSVAPGQTATITCGGDKIGTGPVHWYQQMPGRAPVLLIYASTHRPSRIPERFSGSKSDNTATLSISGVGVGDEADYYCQMWDSSSVHPIVFGGGTKLTVLS | 95.3% | 100% | > 160 µg/mL | -2.7% | 15.8% | 31.2% | 41.2% | > 160 µg/mL | 48.7% | 64.5% |
| Group 54 representative clone F083-354, Fab-PP-type antibody (Fab, V domains shown) VH: QVQLVQSGSEVKKPGSSVKVSCKASGGIFNSYGISWVRQAPGQGLEWMGGILAIFGTTNYAQKFQGRVTITADDSSKTVYMELSSLTSEDTAVYYCARGSTYYSSYFDQWGQGTLVTVSS VL: DIQMTQSPSSLSASVGDRVTITCRASQGIRNSLAWYQQKPGQVPKLLIYSATTLRSGVPYRFSGSGSGTDFTLTISGLQPEDVGTYFCHRYDSAPLTFGGGTRVALK | 100% | 94.2% | > 160 µg/mL | -0.7% | -11% | 66.4% | 80.7% | > 160 µg/mL | 96.1% | 100% |
| Group 48 representative clone F083-389, Fab-PP-type antibody (Fab, V domains shown) VH: QVQLVQSGAEVKKPGSSVKVSCKASGDIFNKFAITWVRQAPGQGLEWMGGITALFATTSYAQKFQDRVTINWDESTTTAFMELSSLRFEDTAVYYCARGPNYYETYLDNWGQGTLVTVSS VL: EIVLTQSPTILSASVGDRVTITCRASQSISKWLAWYQQKPGKVPKLLIYMASTLESGVPSRFSGSGSGSEFTLTISSLQPGDFATYYCQQYNSYPRTFGQGTKVEINV | -18.3% | 100% | > 160 µg/mL | -0.7% | 19.9% | 54.6% | 60.8% | > 160 µg/mL | 98% | 100% |
| Group 42 representative clone F083-249, Fab-PP-type antibody (Fab, V domains shown) VH: QVQLVQSGSEVKKPGSSVKVSCKASGVTFSSYAISWVRQAPGQGLEWMGGISPMFGTTRYAQKFQGRVTITADESTRTGFMELSSLRSGDTAVYYCARSPTYYPGALDMWGQGTTVTVSS VL: DVVMTQSPSLLSASVGDRVTITCRASQAIANFVSWFQQKPGEAPKSLIHAASTLQGGVPPRFSGSGYGAVFTLTITNLQPEDFATYFCQQYNSLPFTFGPGTDVEVR | 100% | 97.7% | > 160 µg/mL | 15.8% | 34.2% | 96.5% | 98.2% | > 160 µg/mL | 100% | 100% |
| Group 55 representative clone F083-305, Fab-PP-type antibody (Fab, V domains shown) VH: EVQLVESGAEVKKPGSSVKVSCKASGSIFSNYAISWVRQAPGQGLEWMGGIVPMFGTTRFAQKFQGRVTITADESRSTAYMELNNLISEDTAVYYCARAPLIYNWYFDLWGRGTLVTVSS VL: EIVLTQSPSFVSASVGDRVSITCRASQGISSWLAWYQQKPGKAPRLLIYGASNLQSGVPSRFSGSGSGTDYTLTINSLQPEDFATYYCQQARTFPVTFGQGTKLEIK | 88.3% | 69.5% | > 160 µg/mL | -17.1% | -6.8% | 2.4% | 22.4% | > 160 µg/mL | 96.1% | 96.1% |
| Group 56 representative clone F083-318, Fab-PP-type antibody (Fab, V domains shown) VH: EVQLVQSGAEVKKPGSSVKVSCQASGSIFSNYAINWVRQAPGQGLEWMGGIVPIFGTTRFAQKFQGRLTITADEPRSTAYMELNNLISEDTAVYYCARAPLIYNWYYDLWGRGTLVTVSS VL: EIVLTQSPSSLSASVGDRVTITCRASQGISNYLAWYQQKPGKVPKLLIYAASTLQSGVPSRFSGSGSGTDFTLTISSLQPEDVATYYCQKYNSAPHTFGPGTKVDIK | 13.5% | 27.9% | > 160 µg/mL | 7.5% | 7.5% | -9.5% | 1.7% | > 160 µg/mL | 84.2% | 92.1% |
| Group 3 representative clone F081-281, Fab-PP-type antibody (Fab, V domains shown) VH: QVQLVQSGSEVKKPGSSVKVSCSFKASGGIISKYAITWVRQAPGQGLEWMGGIIAIFGSTNYAQKFQGRLTITSDESTSTAYMELSSLTSEDTAVYYCGRGPHYYESHLDYWGQGTLVTVSS VL: EIVLTQSPGTLSLSPGERATLSCRASQGMSSSFLAWYQQKPGQPPRLLISGASTRATGIPDRFSGSGSGTDFTLTINRLEPEDFAVYYCQQYGSSPRTFGQGTKVEIK | 100% | 100% | > 160 µg/mL | -11.6% | -8.9% | 81.8% | 85.9% | > 160 µg/mL | 98% | 100% |
| Group 47 representative clone F083-308, Fab-PP-type antibody (Fab, V domains shown) VH: QVQLVQSGAEVKKPGSSVKVSCKASGGIFRSHAISWVRQAPGQGLEWMGGIIAIFGTTHYAQQFQGRVTITADESTSTVYMELSTLRSEDTAVYYCARGPNYFESYFDNWGQGTLVTVSS VL: EIVLTQSPATLSLSPGERATLSCRASQTISSYLAWYQQKPGQAPRLLIYGASNRATGIPARFSGSGSGTDFTLTINSLEPEDFAVYYCQQRSSWPPITFGQGTRLEIK | 97.7% | 100% | > 160 µg/mL | 1.4% | -6.8% | 29.4% | 49.4% | > 160 µg/mL | 100% | 100% |
| Group 1 representative clone F080-227, Fab-PP-type antibody (Fab, V domains shown) VH: QVQLQESGAEVKKPGSSVKVSCKASGGIFRRNAISWVRQAPGQGLEWMGGIIAIFGTANYAQKFQGRVTITADESTSTVYMELSSLRPEDTAVYYCARGPNYYENFFDYWGQGTLVTVSS VL: DIVMTQSPSSLSASVGDRLDLTCRASQDIANSLAWYKQRPGKAPELLVFGASRLEGGVPSRFSGTRAGTDFTLTISSLQPEDLGTYFCQQYFSFPRTFGQGTTLDLR | 100% | 100% | > 160 µg/mL | -0.7% | -0.7% | 67.6% | 52.9% | > 160 µg/mL | 96% | 98% |
| Group 37 representative clone F083-311, Fab-PP-type antibody (Fab, V domains shown) VH: QVQLVQSGSEVKKPGSSVKVSCKASGGIFRTNAISYVRQAPGQGLEWMGGITAIFGTPNYAQKFQGRVTIIADESTSTVYMELGSLTSEDTAVYYCATSGTYYVSYFDSWGQGTLVTVSS VL: DIVMTQSPGTLTLSPGERATLSCRASQSLYSSHLAWYQQKPGQPPRLLIYGASTRAPGTPDRFSGSGSGTDFTLTITALDPEDSAVYYCQQYGSSPITFGQGTRLEIK | 93% | 100% | > 160 µg/mL | -8.9% | 5.5% | 90% | 97.1% | > 160 µg/mL | 100% | 100% |
